Drawing on publication PMC2817712, “Using Structural Information to Change the Phosphotransfer Specificity of a Two-Component Chemotaxis Signalling Complex” (PLoS Biology, 2010), this text covers Kd for two molecules.

The assay concerns the target T1, CheA3P1, the isolated P1 (Hpt, histidine-containing phosphotransfer) domain of CheA3 (residues 1-135), … (R. sphaeroides).
T1 construct: Analyte in SPR and partner in the unphosphorylated crystal structure; also called Hpt domain of CheA3
The assay can be described thus: SPR; Biacore T100, 25°C; response regulator biotinylated in a C-terminal tag and held on streptavidin (200-1,500 RU); CheA3P1 injected at 120 nM to 2 mM; standard buffer (30 mM Hepes pH 7.5, 150 mM NaCl, 5 mM sodium acetate, 2 mM manganese chloride, 2 mM TCEP) with 0.05% Tween 20; equilibrium binding, 1:1 Langmuir model. The settings on record: both partners purified. In general terms: SPR reads the build-up and loss of mass on a sensor chip optically.

The Kd is the concentration at which binding is half-saturated.

B1: CheY6(M13S) with an engineered C-terminal biotinylation tag, for SPR surfaces (natural protein)
chain: PYNVMIVDDAASMRLYIASFIKTLPDFKVVAQAANGQEALDKLAAQPNVDLILLDIEMPVMDGMEFLRHAKLKTRAKICMLSSVAVSGSPHAARARELGADGVVAKPSGTVSHDLEEKTGGELARTMRTLMAA
modifications: biotin within the engineered C-terminal tag (enzymatic)
Take B1: the Kd is greater than 1000 µM.

B2: CheY6(M13S,L16S,Y17M) with an engineered C-terminal biotinylation tag, for SPR surfaces (natural protein)
chain: PYNVMIVDDAASMRSMIASFIKTLPDFKVVAQAANGQEALDKLAAQPNVDLILLDIEMPVMDGMEFLRHAKLKTRAKICMLSSVAVSGSPHAARARELGADGVVAKPSGTVSHDLEEKTGGELARTMRTLMAA
modifications: biotin within the engineered C-terminal tag (enzymatic)
As for B2, the dissociation constant Kd is greater than 1000 µM.
